Experimental data taken from patent US20140348819A1, “Methods of Treating Cancer” (Dana-Farber Cancer Institute, Inc., priority 2011, published 2014).

System: six V600E BRAF melanoma cell lines
Assay: Screening of recombinant RTK ligands for ability to confer resistance to BRAFi (PLX4720) or MEKi (PD184352) (Table 4)
Type: cell-based, human
Design: ability of recombinant RTK ligand to confer resistance / ability of recombinant RTK ligand to confer resistance (screening value): scale not given here
Method in brief: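 Six V600E BRAF melanoma lines treated with PLX4720 or PD184352 after addition of 22 recombinant RTK ligands, scored for drug resistance. Activation of selected RTKs confirmed by western blotting and high-throughput tyrosine kinase phosphorylation profiling.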

B1: Ephrin-A4 (protein, UniProt P52798 26-170, looked up)
Ephrin-A4: LRHVVYWNSSNPRLLRGDAVVELGLNDYLDIVCPHYEGPGPPEGPETFALYMVDWPGYESCQAEGPRAYKRWVCSLPFGHVQFSEKIQRFTPFSLGFEFLPGETYYYISVPTPESSGQCLRLQVSVCCKERKSESAHPVGSPGES
- ability of recombinant RTK ligand to confer resistance (A2058, PD184352 - 1 uM, ligand 1.6 ng/ml): 1.00
- ability of recombinant RTK ligand to confer resistance (A2058, PD184352 - 1 uM, ligand 6.25 ng/ml): 1.02
- ability of recombinant RTK ligand to confer resistance (A2058, PD184352 - 1 uM, ligand 25 ng/ml): 0.99
- ability of recombinant RTK ligand to confer resistance (A2058, PD184352 - 1 uM, ligand 100 ng/ml): 1.04
- ability of recombinant RTK ligand to confer resistance (A2058, PD184352 - 1 uM, ligand 400 ng/ml): 1.07
- ability of recombinant RTK ligand to confer resistance (A2058, PLX4720 - 2 uM, ligand 1.6 ng/ml): 0.97
- ability of recombinant RTK ligand to confer resistance (A2058, PLX4720 - 2 uM, ligand 6.25 ng/ml): 0.99
- ability of recombinant RTK ligand to confer resistance (A2058, PLX4720 - 2 uM, ligand 25 ng/ml): 0.96
- ability of recombinant RTK ligand to confer resistance (A2058, PLX4720 - 2 uM, ligand 100 ng/ml): 0.99
- ability of recombinant RTK ligand to confer resistance (A2058, PLX4720 - 2 uM, ligand 400 ng/ml): 0.98
- ability of recombinant RTK ligand to confer resistance (C32, PD184352 - 1 uM, ligand 1.6 ng/ml): 1.02
- ability of recombinant RTK ligand to confer resistance (C32, PD184352 - 1 uM, ligand 6.25 ng/ml): 1.02
- ability of recombinant RTK ligand to confer resistance (C32, PD184352 - 1 uM, ligand 25 ng/ml): 0.98
- ability of recombinant RTK ligand to confer resistance (C32, PD184352 - 1 uM, ligand 100 ng/ml): 1.04
- ability of recombinant RTK ligand to confer resistance (C32, PD184352 - 1 uM, ligand 400 ng/ml): 0.90
- ability of recombinant RTK ligand to confer resistance (C32, PLX4720 - 2 uM, ligand 1.6 ng/ml): 1.04
- ability of recombinant RTK ligand to confer resistance (C32, PLX4720 - 2 uM, ligand 6.25 ng/ml): 1.01
- ability of recombinant RTK ligand to confer resistance (C32, PLX4720 - 2 uM, ligand 25 ng/ml): 1.04
- ability of recombinant RTK ligand to confer resistance (C32, PLX4720 - 2 uM, ligand 100 ng/ml): 1.10
- ability of recombinant RTK ligand to confer resistance (C32, PLX4720 - 2 uM, ligand 400 ng/ml): 1.03
- ability of recombinant RTK ligand to confer resistance (Colo 829, PD184352 - 1 uM, ligand 1.6 ng/ml): 1.08
- ability of recombinant RTK ligand to confer resistance (Colo 829, PD184352 - 1 uM, ligand 6.25 ng/ml): 1.13
- ability of recombinant RTK ligand to confer resistance (Colo 829, PD184352 - 1 uM, ligand 25 ng/ml): 1.01
- ability of recombinant RTK ligand to confer resistance (Colo 829, PD184352 - 1 uM, ligand 100 ng/ml): 0.98
- ability of recombinant RTK ligand to confer resistance (Colo 829, PD184352 - 1 uM, ligand 400 ng/ml): 0.96
- ability of recombinant RTK ligand to confer resistance (Colo 829, PLX4720 - 2 uM, ligand 1.6 ng/ml): 1.06
- ability of recombinant RTK ligand to confer resistance (Colo 829, PLX4720 - 2 uM, ligand 6.25 ng/ml): 1.19
- ability of recombinant RTK ligand to confer resistance (Colo 829, PLX4720 - 2 uM, ligand 25 ng/ml): 1.00
- ability of recombinant RTK ligand to confer resistance (Colo 829, PLX4720 - 2 uM, ligand 100 ng/ml): 0.99
- ability of recombinant RTK ligand to confer resistance (Colo 829, PLX4720 - 2 uM, ligand 400 ng/ml): 0.90
- ability of recombinant RTK ligand to confer resistance (G-361, PD184352 - 1 uM, ligand 1.6 ng/ml): 1.11
- ability of recombinant RTK ligand to confer resistance (G-361, PD184352 - 1 uM, ligand 6.25 ng/ml): 1.09
- ability of recombinant RTK ligand to confer resistance (G-361, PD184352 - 1 uM, ligand 25 ng/ml): 1.04
- ability of recombinant RTK ligand to confer resistance (G-361, PD184352 - 1 uM, ligand 100 ng/ml): 0.98
- ability of recombinant RTK ligand to confer resistance (G-361, PD184352 - 1 uM, ligand 400 ng/ml): 0.86
- ability of recombinant RTK ligand to confer resistance (G-361, PLX4720 - 2 uM, ligand 1.6 ng/ml): 1.08
- ability of recombinant RTK ligand to confer resistance (G-361, PLX4720 - 2 uM, ligand 6.25 ng/ml): 1.05
- ability of recombinant RTK ligand to confer resistance (G-361, PLX4720 - 2 uM, ligand 25 ng/ml): 0.95
- ability of recombinant RTK ligand to confer resistance (G-361, PLX4720 - 2 uM, ligand 100 ng/ml): 1.02
- ability of recombinant RTK ligand to confer resistance (G-361, PLX4720 - 2 uM, ligand 400 ng/ml): 0.88
- ability of recombinant RTK ligand to confer resistance (SK-MEL-5, PD184352 - 1 uM, ligand 1.6 ng/ml): 0.96
- ability of recombinant RTK ligand to confer resistance (SK-MEL-5, PD184352 - 1 uM, ligand 6.25 ng/ml): 0.93
- ability of recombinant RTK ligand to confer resistance (SK-MEL-5, PD184352 - 1 uM, ligand 25 ng/ml): 0.93
- ability of recombinant RTK ligand to confer resistance (SK-MEL-5, PD184352 - 1 uM, ligand 100 ng/ml): 0.98
- ability of recombinant RTK ligand to confer resistance (SK-MEL-5, PD184352 - 1 uM, ligand 400 ng/ml): 0.99
- ability of recombinant RTK ligand to confer resistance (SK-MEL-5, PLX4720 - 2 uM, ligand 1.6 ng/ml): 0.91
- ability of recombinant RTK ligand to confer resistance (SK-MEL-5, PLX4720 - 2 uM, ligand 6.25 ng/ml): 1.07
- ability of recombinant RTK ligand to confer resistance (SK-MEL-5, PLX4720 - 2 uM, ligand 25 ng/ml): 0.99
- ability of recombinant RTK ligand to confer resistance (SK-MEL-5, PLX4720 - 2 uM, ligand 100 ng/ml): 0.99
- ability of recombinant RTK ligand to confer resistance (SK-MEL-5, PLX4720 - 2 uM, ligand 400 ng/ml): 0.93
- ability of recombinant RTK ligand to confer resistance (SK-MEL-28, PD184352 - 1 uM, ligand 1.6 ng/ml): 0.98
- ability of recombinant RTK ligand to confer resistance (SK-MEL-28, PD184352 - 1 uM, ligand 6.25 ng/ml): 0.88
- ability of recombinant RTK ligand to confer resistance (SK-MEL-28, PD184352 - 1 uM, ligand 25 ng/ml): 0.99
- ability of recombinant RTK ligand to confer resistance (SK-MEL-28, PD184352 - 1 uM, ligand 100 ng/ml): 1.07
- ability of recombinant RTK ligand to confer resistance (SK-MEL-28, PD184352 - 1 uM, ligand 400 ng/ml): 0.90
- ability of recombinant RTK ligand to confer resistance (SK-MEL-28, PLX4720 - 2 uM, ligand 1.6 ng/ml): 1.10
- ability of recombinant RTK ligand to confer resistance (SK-MEL-28, PLX4720 - 2 uM, ligand 6.25 ng/ml): 0.84
- ability of recombinant RTK ligand to confer resistance (SK-MEL-28, PLX4720 - 2 uM, ligand 25 ng/ml): 1.05
- ability of recombinant RTK ligand to confer resistance (SK-MEL-28, PLX4720 - 2 uM, ligand 100 ng/ml): 1.10
- ability of recombinant RTK ligand to confer resistance (SK-MEL-28, PLX4720 - 2 uM, ligand 400 ng/ml): 1.00
